Assay results reported in patent US8653023.

Test system: protein phosphatase 2A (PP2A), endogenous, in N27 cell lysate

recombinant pure PKCδ
32P-kinase assay: phosphorylation of immunoprecipitated PP2A: PP2A immunoprecipitated from N27 cells was effectively phosphorylated by PKCδ immunoprecipitates as well as by recombinant pure PKCδ
